The results in this text go back to patent CN113912709A (SHENZHEN NATIONAL CLINICAL RES CENTER FOR INFECTIOUS …, dated 2022).

Changes are numbered by the printed parent chain.

B1: VacW-209 (antibody, V domains shown)
VH: QVQLVESGGGVVQPGRSLRLSCAASGFTFSSIAMHWVRQAPGKGLEWVAVMSFDGSIKYYGDSVKGRFTISRDNSKSTLYLQMNSLRAEDTAVYYCARGVQGYYDRSGYYNLDYNYGMDVWGQGTTVTVSS
VL: QSVLTQPPSVSGAPGQRVTISCTGSSSNIGAGYDVHWYQQLPGTAPKLLIYGNSNRPSGVPDRFSGSKSGTSASLAITGLQAEDEADYYCQSYDSSLSGWVFGGGTKLTVL
B2: VacW-138 (antibody, V domains shown)
VH: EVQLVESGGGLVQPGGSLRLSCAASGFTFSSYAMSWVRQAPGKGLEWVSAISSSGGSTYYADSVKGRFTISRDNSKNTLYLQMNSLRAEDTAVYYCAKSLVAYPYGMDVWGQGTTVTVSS
VL: AIQLTQSPFSLSASVGDRVTITCRASQGISSALAWYQQKPGKAPKLLIYDASSLESGVPSRFSGSGSGTDFTLTISSLQPEDFATYFCQQVDTYQFTFGPGTKVDIK
B3: VacW-105 (antibody, V domains shown)
VH: QVQLVQSGAEVKKPGSSVKVSCKASGGTFRSYTISWVRQAPGQGLEWMGRILPILGIANYAQKFQGRVTITADKSTSTAYMELSSLRSEDTAVYYCARVTGAPVESAAWFDPWGQGTLVTVSS
VL: not shown
B4: VacW-201 (antibody, V domains shown)
VH: EVQLVESGGGLVQPGGSLRLSCAASGFTFSSYWMNWVRQAPGKGLEWVANIKQDGSEKYYVDSVKGRFTISRDNAKNSLYLQMNSLRAEDTAVYYCARMEYPYGGVDYWGQGTLVTVSS
VL: NFMLTQPHSVSESPGKTVTISCTGSSGSIASNYVQWYQQRPGSAPTTVIYEDNQRPSGVPDRFSGSIDSSSNSASLTISGLKTEDEADYYCQSYDSSNRNWVFGGGTKLTVL
B5: VacW-215 (antibody, V domains shown)
VH: EVQLVESGGGLIQPGGSLRLSCAASGFTVSSNYMSWVRQAPGKGLEWVSVIYSGGSTYYADSVKGRFTISRDNSKNTLYLQMNSLRAEDTAVYYCARSTWLRGGFDYWGQGTLVTVSS
VL: B4 VL with R99H, N100F, W101Y, G105T, L109V
B6: VacW-212 (antibody, V domains shown)
VH: B4 VH with G55E, Y80F, A88V, V106I, S119A
VL: B4 VL

The target in the first experiment is SARS-CoV-2 wild-type spike protein (on pseudovirus) (SARS-CoV-2, UniProt P0DTC2 14-1273). The experiment can be described thus: cell-based or functional assay.
With B1, the “假病毒中和试验 IC50” value came to 0.03 µg/mL.

A further experiment has as its target T1, SARS-CoV-2 wild-type RBD protein (SARS-CoV-2, UniProt P0DTC2 319-541).
T1 construct: domain: RBD
Kind of experiment: SPR, Biacore 8K, RBD on CM5 chip, IgG injected, 1:1 model.
For B2, the Kd was 1100 pM. Still for that read-out and setting: the result for B3 reads 1640 pM; that for B4, 880 pM; that for B5, 405 pM.

The molecule B6 showed a Kd of 653 pM. Compared with the last molecule, the Kd is about 1.6-fold higher. The same measure, in the same setting: the same measure for B1: 11.3 pM.
